Values of other authors in PMC5419744.

Target: DNA polymerase III subunit tau (Escherichia coli) (UniProt P06710)
UniProt P06710, sequence (P06710 2-643): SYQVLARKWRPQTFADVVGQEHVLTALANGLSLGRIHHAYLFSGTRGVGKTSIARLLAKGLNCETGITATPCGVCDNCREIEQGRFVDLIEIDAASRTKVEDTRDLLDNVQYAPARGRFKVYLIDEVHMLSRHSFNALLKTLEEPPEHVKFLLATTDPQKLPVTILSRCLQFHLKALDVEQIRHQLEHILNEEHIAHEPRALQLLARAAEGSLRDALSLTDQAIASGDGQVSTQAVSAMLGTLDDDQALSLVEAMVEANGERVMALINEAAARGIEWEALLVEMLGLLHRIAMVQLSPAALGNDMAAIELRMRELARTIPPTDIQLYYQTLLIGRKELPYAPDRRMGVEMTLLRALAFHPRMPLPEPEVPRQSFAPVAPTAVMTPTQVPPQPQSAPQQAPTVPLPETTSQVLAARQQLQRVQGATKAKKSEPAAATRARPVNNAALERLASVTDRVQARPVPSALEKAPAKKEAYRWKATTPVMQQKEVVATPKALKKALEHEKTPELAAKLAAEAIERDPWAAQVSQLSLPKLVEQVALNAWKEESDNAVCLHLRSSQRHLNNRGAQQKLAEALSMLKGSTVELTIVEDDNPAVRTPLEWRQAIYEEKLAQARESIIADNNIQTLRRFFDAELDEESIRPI

For “DNA polymerase III subunit alpha (from UniProt P10443)”, the Kd is listed as 300 pM.
